B1: Peroxisome proliferator-activated receptor alpha (Homo sapiens), Q07869 (parent)
chain: MVDTESPLCPLSPLEAGDLESPLSEEFLQEMGNIQEISQSIGEDSSGSFGFTEYQYLGSCPGSDGSVITDTLSPASSPSSVTYPVVPGSVDESPSGALNIECRICGDKASGYHYGVHACEGCKGFFRRTIRLKLVYDKCDRSCKIQKKNRNKCQYCRFHKCLSVGMSHNAIRFGRMPRSEKAKLKAEILTCEHDIEDSETADLKSLAKRIYEAYLKNFNMNKVKARVILSGKASNNPPFVIHDMETLCMAEKTLVAKLVANGIQNKEAEVRIFHCCQCTSVETVTELTEFAKAIPGFANLDLNDQVTLLKYGVYEAIFAMLSSVMNKDGMLVAYGNGFITREFLKSLRKPFCDIMEPKFDFAMKFNALELDDSDISLFVAAIICCGDRPGLLNVGHIEKMQEGIVHVLRLHLQSNHPDDIFLFPKLLQKMADLRQLVTEHAQLVQIIKKTESDAALHPLLQEIYRDMY

Variants of: B1
Conditions: with ncor1_human NCOR1, O75376
ncor1_human NCOR1, O75376, sequence (O75376 whole entry): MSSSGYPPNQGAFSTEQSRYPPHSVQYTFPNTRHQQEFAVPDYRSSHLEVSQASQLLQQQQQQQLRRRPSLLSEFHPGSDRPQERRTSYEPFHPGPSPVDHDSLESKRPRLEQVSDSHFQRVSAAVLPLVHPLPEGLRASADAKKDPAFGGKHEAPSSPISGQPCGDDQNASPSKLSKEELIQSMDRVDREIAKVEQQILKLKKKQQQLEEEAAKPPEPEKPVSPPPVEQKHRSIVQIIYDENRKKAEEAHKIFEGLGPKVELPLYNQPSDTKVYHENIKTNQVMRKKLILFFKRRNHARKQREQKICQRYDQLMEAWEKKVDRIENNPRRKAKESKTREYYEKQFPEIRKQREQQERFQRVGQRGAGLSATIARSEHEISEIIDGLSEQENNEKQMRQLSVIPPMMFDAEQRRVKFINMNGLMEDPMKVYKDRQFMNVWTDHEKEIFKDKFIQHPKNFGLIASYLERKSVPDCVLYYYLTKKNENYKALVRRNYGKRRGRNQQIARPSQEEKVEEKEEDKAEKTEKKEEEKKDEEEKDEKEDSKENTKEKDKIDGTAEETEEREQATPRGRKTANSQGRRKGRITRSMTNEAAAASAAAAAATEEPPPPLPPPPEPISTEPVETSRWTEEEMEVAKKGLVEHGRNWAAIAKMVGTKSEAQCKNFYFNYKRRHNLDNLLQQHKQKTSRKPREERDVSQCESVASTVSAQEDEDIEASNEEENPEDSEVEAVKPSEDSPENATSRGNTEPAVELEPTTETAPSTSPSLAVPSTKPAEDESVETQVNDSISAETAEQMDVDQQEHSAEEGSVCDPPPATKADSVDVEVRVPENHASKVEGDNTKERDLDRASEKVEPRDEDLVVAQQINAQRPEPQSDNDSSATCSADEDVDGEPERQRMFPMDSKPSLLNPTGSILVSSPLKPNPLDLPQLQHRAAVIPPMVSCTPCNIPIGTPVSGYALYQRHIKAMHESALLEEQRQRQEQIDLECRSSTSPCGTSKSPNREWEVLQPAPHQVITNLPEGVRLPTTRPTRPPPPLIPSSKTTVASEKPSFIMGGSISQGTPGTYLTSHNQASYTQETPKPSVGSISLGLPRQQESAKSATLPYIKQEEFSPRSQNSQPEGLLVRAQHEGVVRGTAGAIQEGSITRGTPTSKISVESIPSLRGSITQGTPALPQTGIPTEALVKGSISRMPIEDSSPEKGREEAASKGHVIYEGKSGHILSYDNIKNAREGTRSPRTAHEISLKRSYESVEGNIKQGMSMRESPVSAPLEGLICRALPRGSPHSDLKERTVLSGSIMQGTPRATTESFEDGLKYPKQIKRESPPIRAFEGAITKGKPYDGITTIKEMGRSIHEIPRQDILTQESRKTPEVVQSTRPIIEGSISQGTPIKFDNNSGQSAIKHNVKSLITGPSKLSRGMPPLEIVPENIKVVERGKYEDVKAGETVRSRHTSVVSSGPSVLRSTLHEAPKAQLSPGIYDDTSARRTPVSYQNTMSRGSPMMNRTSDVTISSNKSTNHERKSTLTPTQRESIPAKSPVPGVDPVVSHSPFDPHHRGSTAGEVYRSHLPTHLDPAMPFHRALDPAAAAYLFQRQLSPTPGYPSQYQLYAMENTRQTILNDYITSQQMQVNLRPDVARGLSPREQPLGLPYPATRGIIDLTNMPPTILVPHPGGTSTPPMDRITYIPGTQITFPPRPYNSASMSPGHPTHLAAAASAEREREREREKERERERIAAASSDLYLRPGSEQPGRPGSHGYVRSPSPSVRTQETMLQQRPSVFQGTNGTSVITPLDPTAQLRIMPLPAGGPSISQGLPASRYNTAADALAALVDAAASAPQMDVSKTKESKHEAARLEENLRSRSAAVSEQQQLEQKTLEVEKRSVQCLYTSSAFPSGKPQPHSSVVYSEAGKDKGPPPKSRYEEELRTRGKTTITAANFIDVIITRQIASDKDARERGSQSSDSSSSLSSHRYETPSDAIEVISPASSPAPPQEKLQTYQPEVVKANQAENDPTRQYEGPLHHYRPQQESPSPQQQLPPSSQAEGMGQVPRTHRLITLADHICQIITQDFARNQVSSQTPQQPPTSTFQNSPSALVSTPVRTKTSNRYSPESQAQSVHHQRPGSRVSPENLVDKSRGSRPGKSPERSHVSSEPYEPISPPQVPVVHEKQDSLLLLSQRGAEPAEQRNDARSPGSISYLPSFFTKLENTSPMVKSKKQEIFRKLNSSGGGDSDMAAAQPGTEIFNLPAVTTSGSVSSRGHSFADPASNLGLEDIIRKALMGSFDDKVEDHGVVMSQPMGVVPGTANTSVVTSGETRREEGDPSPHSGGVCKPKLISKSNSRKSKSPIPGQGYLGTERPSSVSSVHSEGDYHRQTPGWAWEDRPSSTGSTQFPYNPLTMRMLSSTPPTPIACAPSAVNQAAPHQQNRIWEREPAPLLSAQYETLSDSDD

Row | Variant | effect of a mutation on the interaction
1 | K185R | decreasing interaction
